According to patent US20150086481A1, “DIAGNOSIS AND TREATMENT OF PARKINSON'S DISEASE” (MEMORIAL SLOAN-KETTERING CANCER CENTER, priority 2011, published 2015):
“Also recorded” adds a separate entry of the source. Where no end group is shown, it is not given here.

Target: T1, GUCY2C receptor (Mus musculus, UniProt Q3UWA6)
T1 construct: from tissue; host or cells: adult mouse brain (substantia nigra mDA neurons), in vivo after tail vein injection
T1 sequence (Q3UWA6 20-1072): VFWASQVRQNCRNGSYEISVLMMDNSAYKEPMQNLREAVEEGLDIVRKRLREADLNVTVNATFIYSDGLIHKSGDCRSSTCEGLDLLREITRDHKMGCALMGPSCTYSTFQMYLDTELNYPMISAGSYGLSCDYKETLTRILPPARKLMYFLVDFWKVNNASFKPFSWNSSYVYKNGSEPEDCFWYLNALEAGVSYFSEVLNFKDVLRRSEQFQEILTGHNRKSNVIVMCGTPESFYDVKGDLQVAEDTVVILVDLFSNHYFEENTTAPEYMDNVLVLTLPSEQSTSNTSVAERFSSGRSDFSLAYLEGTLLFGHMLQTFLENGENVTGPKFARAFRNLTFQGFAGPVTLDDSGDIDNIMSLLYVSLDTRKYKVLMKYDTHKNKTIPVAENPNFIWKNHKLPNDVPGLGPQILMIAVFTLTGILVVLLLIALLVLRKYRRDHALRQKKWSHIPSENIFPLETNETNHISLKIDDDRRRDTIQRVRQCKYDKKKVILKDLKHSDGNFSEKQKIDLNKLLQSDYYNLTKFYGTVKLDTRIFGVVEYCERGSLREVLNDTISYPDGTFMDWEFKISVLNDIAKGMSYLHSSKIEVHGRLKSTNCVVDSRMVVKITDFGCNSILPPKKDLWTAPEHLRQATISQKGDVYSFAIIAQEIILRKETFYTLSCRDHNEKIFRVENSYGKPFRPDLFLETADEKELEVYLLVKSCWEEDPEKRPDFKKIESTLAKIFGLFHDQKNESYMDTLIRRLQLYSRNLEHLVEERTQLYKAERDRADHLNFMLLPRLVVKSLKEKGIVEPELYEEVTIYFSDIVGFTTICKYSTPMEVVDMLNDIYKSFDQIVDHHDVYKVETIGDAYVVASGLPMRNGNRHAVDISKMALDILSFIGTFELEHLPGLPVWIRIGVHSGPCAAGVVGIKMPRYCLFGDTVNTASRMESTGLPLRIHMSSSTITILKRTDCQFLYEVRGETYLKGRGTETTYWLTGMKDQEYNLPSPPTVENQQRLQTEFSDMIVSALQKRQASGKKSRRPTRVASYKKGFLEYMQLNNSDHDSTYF
Assay: Autoradiography of sagittal brain sections after tail vein injection of ^131I-guanylin
Assay type: in vivo
Procedure: The GUCY2C receptor binds to heat stable enterotoxins, to guanylin and to uroguanylin. Guanylin is a 15 amino acid polypeptide (PGTCEICAYAACTGC, SEQ ID NO:1) that contains a tyrosine residue within the middle of its structure (Bryant et al., Life Sci. 86:760-765 (2010)). Guanylin (R&D Systems, Inc., Minneapolis, Minn.) was radiolabeled with ^131Iodine. 1 mCi of ^131I-guanylin was injected in the tail vein of adult mice and animals were sacrificed 10 minutes post-injection without perfusion.

“^131I-guanylin: Guanylin, a 15 amino acid polypeptide GUCY2C ligand (R&D Systems), radiolabeled with ^131Iodine (PGTCEICAYAACTGC; ends and bridges not checked; also: 131I radiolabel; UniProt Q02747 101-115, looked up)” was tested, and the “crossing of the blood brain barrier” value (adult mice, 1 mCi tail vein injection, 10 minutes post-injection) was “crossed the blood brain barrier”, the “localization of radioactive signal in sagittal brain sections (autoradiography)” value (adult mice, 1 mCi tail vein injection, sacrificed 10 minutes post-injection without perfusion) was “localized to the ventricles; also recorded: within the brain parenchyma the only “hot spot” was indeed localized to the GUCY2C expression domain; also recorded: strong emission in the ventricles and SN” and the “binding to GUCY2C expressing mDA neurons in the SN” value (adult mouse brain, after tail vein injection, signal specific to TH-expressing mDA neurons) was “bound to GUCY2C expressing mDA neurons in the SN of the adult brain; also recorded: specific binding to the GUCY2C receptor”.
